Data as given in patent US20140289906A1, “Compositions Having Dicamba Decarboxylase Activity and Methods of Use” (priority 2013, published 2014).

What was measured:
[1] = Enzyme kinetic characterization (kcat, KM, kcat/KM) of dicamba decarboxylase variants (Table 9)
[2] = 14C assay: 14CO2 capture from [14C]-carboxyl-labeled dicamba with IPTG-induced recombinant E. coli cells; conditions: dicamba decarboxylation activity
[3] = 14C assay: 14CO2 capture from [14C]-carboxyl-labeled dicamba with purified protein; type: biochemical
[4] = GC/MS detection of 2,5-dichloro anisole (2,5-DCA), toluene trapping or head-space; type: biochemical; conditions: purified protein, dicamba, toluene capturing
Procedure: Alternatively, dicamba decarboxylase activity can be monitored by measuring decarboxylation products other than CO2 using product detection methods. The decarboxylation product of dicamba, 2,5-dichloro anisole or 2,5-DCA (FIG. 1C), is a volatile compound with a flash point of 21° C. To capture this volatile compound for detection, 140 ul of toluene solution is added on top of 1 ml reaction mixture to form a trapping layer in a 1.5 ml eppendorf tube. […] The reaction is kept still at room temperature overnight before being vortex mixed and centrifuged at 14,000 rpm for 15 minutes. The top toluene phase is carefully removed using a micropipette and transferred into a 12×32 mm polypropylene vial (Vial 11 mm) from MicroLiter Analytical Supplies, Inc. (catalog number 11-5300-100). The vial is sealed with Crimp seal (11 mm with FEP/Nat Rubber) from MicroLiter Analytical Supplies, Inc. (catalog number 11-0020A) using a E-Z Crimper™ 11 mm from Wheaton Inc. 1 ul of the toluene mixture is taken from the sealed vials and injected in splitless mode into a GC/MS system for sample analysis (Agilent GC/MS system with a 6890A GC, a 5973N MSD and a CTC CombiPAL auto-sampler or with a 7890A GC, a 5975C MSD and an Agilent GC Sampler 80 auto-sampler). The GC parameters are: Agilent DB-5MS column (30 m length, 0.25 mm diameter, 0.25 um film) or equivalent; The GC inlet temperature, 250° C.; Carry gas, helium in constant flow mode (1.2 mL/min); The GC oven temperature program, initial temperature at 70° C. for 1 min, ramping to 200° C. at 15° C./min, and then ramping to 250° C. at 30° C./min. MS data acquisition is done in SIM (selected ion monitoring) mode, monitoring the positive ion at M/Z 176 for the molecular ion of […]. The solvent delay for MS acquisition is set at 4 min. Another method for detection of 2,5-DCA is a head-space GC/MS method. Briefly, reaction mixtures in 500 ul reaction volume are prepared in 1.5 ml 12×32 mm glass vials (Microliter Analytical Supplies, Cat#11-1200) for head space analysis. Glass vials are sealed with magnetic cap from MicroLiter Analytical Supplies, Inc. (catalog number 11-0030AT) using a E-Z Crimper™ 11 mm from Wheaton Industries Inc. The reaction is carried out at room temperature for various amount of time and stopped by heating at 95° C. for 5 min. The reaction vial is transferred to a agitator for incubation at 80° C. for 5 min at 500 rpm. With a syringe preheated at 80° C., 1000 uL of head space is injected with sample fill speed at 100 uL/sec. GC/MS parameters for headspace analysis are the same as for liquid sample analysis.

[5] = LC-MS/MS detection of 4-chloro-3-methoxy phenol; type: biochemical; conditions: purified protein, dicamba
[6] = GC/MS detection of 2,5-dichloro phenol (2,5-DCP); kinetic determination; type: biochemical; conditions: purified protein, dicamba
[7] = Dicamba decarboxylation activity of computationally designed protein variants and parents (Tables 4, 5); conditions: native proteins and designed variants; assay not specified

B1: 123 (protein)
chain: MAQGKVALEEHFAIPETLQDSAGFVPGDYWKELQHRLLDIQDTRLKLMDAHGIETMILSLAAPAVQAIPDRRKAIEIARRANDVLAEECAKRPDRFLAFAALPLQDPDAATEELQRCVNDLGFVGALVNGFSQEGDGQTPLYYDLPQYRPFWGEVEKLDVPFYLHPRNPLPQDSRIYDGHPWLLGPTWAFAQETAVHALRLMASGLFDEHPRLNIILGHMGEGLPYMMWRIDHRVAWVKLPPRYPAKRRFMDYFNENFHITTSGNFRTQTLIDAILEIGADRILFSTDWPFENIDHASDWFNATSIAEADRVKIGRTNARRLFKLDGA
modifications: Dicamba decarboxylase variant clone S03902153
[1]; FIG. 6
  protein kinetic activity (substrate concentration versus reaction velocity) over SEQ ID NO:109: improvement
[2]
  Enzymatic Detection level: High

B2: 121 (protein)
chain: MAIIDCHGHYTTTPKGVEDYRNAQKAAVAKDPSFKGEKGQVVVSDDEIRESIENNQLKMQRERGTDLTIFSPRWDAGGHHIGNEYTSQFWTEHQNDLIRRVCDLFPKNFAPVAQLPQSPGVDPAKSVPEIVRTVEQMGFIGINLNPDPSGGYWKDTSLADRAFYPIYEKMVEYDIPAMIHPRLACNACFHTGLSVGLGADTTGFQQLIMSDVFKDFPSLKIIIPHGGGAVPYHWGRFRGLMQDQGYAPLEESALKNIYFDTCVYHQRGIDLLLDIVPTQNILFASEMIGAVRGIDPETGHNFDDTKRYIDNNTALNAEEKAMIFEGNARRVFSRLKTD
modifications: Dicamba decarboxylase variant clone DC.12.014
[3]
  CO2 product detected: not detected
[4]
  2,5-DCA product detected: detected
[5]
  4-chloro-3-methoxy phenol product detected: not detected
[6]
  2,5-DCP product detected: not detected
[7]
  dicamba decarboxylase activity (statement in the description): have dicamba decarboxylase activity
[2]
  Enzymatic Detection level: High

B3: 122 (protein)
chain: MAIIDCHGHYTTTPKGVEDYRNAQKAAVAKDPSFKGEKGQVVVSDDEIRESIENNQLKMQRERGTDLTIFSPRSTAGGHHIGNEYTSQFWTEHQNDLIRRVCDLFPKNFAPVAQLPQSPGVDPAKSVPEIVRTVEQMGFIGINLNPDPSGGYWKDTSLADRAFYPIYEKMVEYDIPAMIHPRNACNDCFHTTGSHALGADTTGFQQLIMSDVFKDFPSLKIIIPHGGGAVPYHWGRFRGLMQDQGYAPLEESALKNIYFDTCVYHQRGIDLLLDIVPTQNILFASDMIGAVRGIDPETGHNFDDTKRYIDNNTALNAEEKAMIFEGNARRVFSRLKTD
modifications: Dicamba decarboxylase variant clone DC.12.103
[3]
  CO2 product detected: not detected
[4]
  2,5-DCA product detected: detected
[5]
  4-chloro-3-methoxy phenol product detected: not detected
[6]
  2,5-DCP product detected: not detected
[7]
  dicamba decarboxylase activity (statement in the description): have dicamba decarboxylase activity
[2]
  Enzymatic Detection level: High

B4: 126 (protein)
chain: MAQGKVALEEHFAIPETLQDSAGFVPGDYWKELQHRLLDIQDTRLKLMDAHGIETMILSLAAPAVQAIPDRRKAIEIARRANDFLAEECAKRPDRFLAFAALPLQDPDAATEELQRCVNDLGFVGALVNGFSQEGDGQTPLYYDLPQYRPFWGEVEKLDVPFYLHPRNPLPQDSRIYDGHPWLLGPTWAFAQETAVHALRLMASGLFDEHPRLNIILGHMGEGLPYMMYRIDHRIAWVKLPPRYPAKRRFMDYFNENFHITTSGNFRTQTLIDAILEIGADRILFSTDWPFENIDHAADWFNATSIAEADRVKIGRTNARRLFKLDGA
modifications: Dicamba decarboxylase variant clone S03970792
[1]; substrate dicamba, purified protein
  kcat: 0.03967 s⁻¹
[2]
  Enzymatic Detection level: High
